Measured values taken from patent US20180250335.

Legend:
Assay in all cases: cell_activity
[1] = system: TALEN 2L3 (TAP1 exon 1 left arm) (synthetic construct); settings: as pair 2L3*2R1 in hESCs, puromycin selection; one or two alleles
[2] = system: TALEN 1L2 (TAPBP exon 2 left arm) (synthetic construct); settings: as pair 1L2*1R2 in hESCs, puromycin selection; one or two alleles
[3] = system: TALEN 1R2 (TAPBP exon 2 right arm) (synthetic construct); settings: as pair 1L2*1R2 in hESCs, puromycin selection; SEQ 28 in the listing is printed reversed
[4] = system: TALEN 2R1 (TAP1 exon 1 right arm) (synthetic construct); settings: as pair 2L3*2R1 in hESCs, puromycin selection; SEQ 24 in the listing is printed reversed

Q: How did the activity (% clones targeted) [1] turn out when “TGAAGCCATTAGCTG (double strand) [TAP1 exon 1 left half-site]” was run?
A: The activity (% clones targeted) was 27.1.

Q: How did the activity (% clones targeted) [2] turn out when “GATCGAGTGTTGGTT (double strand) [TAPBP exon 2 left half-site]” was run?
A: The activity (% clones targeted) was 33.3.

Q: For “CTCTTGGCCAGGCCCTTT (double strand) [TAPBP exon 2 right half-site]”, which activity (% clones targeted) [3] is on record?
A: The activity (% clones targeted) was 33.3.

Q: How did the activity (% clones targeted) [4] turn out when “GGCAAGTCCCGGCAGGG (double strand) [TAP1 exon 1 right half-site]” was run?
A: Its activity (% clones targeted) is 27.1.
